Assay results reported in US12637662B2, “Cells, islets, and organoids that evade immune detection and autoimmunity, methods of production and use thereof” (SALK INSTITUTE FOR BIOLOGICAL STUDIES, priority 2018, dated 2026).

Tests used:
[1] = test system: ERRγ (ESRRG), mitochondrial and insulin gene expression; experiment: Quantitative RT-PCR gene expression in hiPSC-derived islet organoids/HILOs; format: cell-based, human; conditions: hiPSC-derived islet organoids, MCS or HILOs
Method: hiPSCs were cultured in matrigel-coated plates. Single cell suspensions were prepared using Accutase, washed in PBS, and collected by centrifugation (1000-1300 rpm for 5 min). Cells were re-suspended with 3D Kelco Gel Stem TeSR™ Base Medium in the presence of the ROCK inhibitor (10 μM Y-27632, StemCell) for 5 to 7 days until spheroids reached 50-100 μm diameter. The medium was then replaced with 0.015% Kelco gel containing 0.3% methylcellulose and supplemented with 100 ng/ml human Activin A (R&D Systems), 3 μM CHIR99021 (Axon or Selleckchem) in differentiation medium (S1) for 1 day, and then 100 ng/ml human Activin in differentiation medium (S1) for another 2 days (Stage 1, Definitive Endoderm). Subsequently, the medium was replaced with differentiation medium (S2) with 50 ng/ml FGF7 (R&D Systems) for 2 days, differentiation medium (S3) with 50 ng/ml FGF7, 0.25 μM SANT-1 (Sigma), 1 μM Retinoic Acid (Sigma), 100 nM LDN193189, 10 μM Alk5 inhibitor II and 200 nM of the ß-Amyloid Precursor Protein modulator TPB for 3 days, then 50 ng/ml FGF7, 0.25 μM SANT-1 (Sigma), 1 μM Retinoic Acid (Sigma), 100 nM LDN193189, 10 μM Alk5 inhibitor II and 100 nM of the ß-Amyloid Precursor Protein modulator TPB for 2 days. Subsequently the medium was replaced with differentiation medium (S4) with 0.25 μM SANT-1, 50 nM retinoic acid, 100 nM LDN193189, 10 μM Alk5 inhibitor II, 1 μM T3 for 3 days. Subsequently, the medium was replaced with differentiation medium (S5) with 100 nM LDN193189, 100 nM […] inhibitor XX (GSiXX, Millipore), 10 μM Alk5 inhibitor IL, 1 μM T3 for 7 days. Subsequently, the medium was replaced with differentiation media (S5) with 10 μM Trolox (Calbiochem), 2 μM R428 (Selleckchem), 1 mM N-acetyl cysteine, 10 μM Alk5 inhibitor II, 1 μM T3 for an additional 7 to 20 days. […]
Total RNA was extracted using TRIzol reagent (Invitrogen) and RNeasy KIT (Qiagen). […] Real time quantitative RT-PCR (qPCR) was performed using SYBR Green (Bio-Rad).

[2] = test system: insulin-expressing cells of HILOs; experiment: Mitochondrial content (MitoTracker) and insulin-GFP by flow cytometry; format: cell-based, human
Source text: FIGS. 8A-8H provide images, graphs, a schematic and a diagram showing results related to WNT4 mediated insulin-GFP expression and WNT4-driven metabolic maturation. FIG. 8A presents representative images of mitochondrial content, indicated by MitoTracker (red) staining, in PBS and WNT4 treated HILOs (scale bar, 100 μm). FIG. 8B presents graphs of flow cytometry quantification of insulin expression (GFP) and mitochondrial content in HILOs treated with recombinant human WNT4 (rhWNT4), WNT5A (rhWNT5A), or conditioned medium (CM) from control or WNT5A overexpressing fibroblasts (n=3). Error bars represent SEM. *p<0.05. FIG. 8C presents a gene ontology of transcriptional changes induced by WNT4 treatment (100 ng/ml WNT4 from day26 to day33) in HILOs. […] Error bars represent SEM. *p<0.05. FIG. 8E presents a Venn diagram showing overlap between WNT4-induced increases in chromatin accessibility in GFP^+ cells and increases in HILO gene expression (upper panel), and gene ontology pathways enriched in the intersection gene set. […] For FIGS. 8G and 8H, postnatal islets (day P11-14) from WT and β cell specific ERRγKO mice were cultured with or without rhWNT4 (100 ng/ml) for >5 days.

B1: WNT5a: recombinant human Wnt5a protein (protein, UniProt P41221 62-380, looked up)
Protein Wnt-5a: IIGAQPLCSQLAGLSQGQKKLCHLYQDHMQYIGEGAKTGIKECQYQFRHRRWNCSTVDNTSVFGRVMQIGSRETAFTYAVSAAGVVNAMSRACREGELSTCGCSRAARPKDLPRDWLWGGCGDNIDYGYRFAKEFVDARERERIHAKGSYESARILMNLHNNEAGRRTVYNLADVACKCHGVSGSCSLKTCWLQLADFRKVGDALKEKYDSAAAMRLNSRGKLVQVNSRFNSPTTQDLVYIDPSPDYCVRNESTGSLGTQGRLCNKTSEGMDGCELMCCGRGYDQFKTVQTERCHCKFHWCCYVKCKKCTEIVDQFVCK
- expression of ERRγ (ESRRG) and mitochondrial genes [1]: induced
- proportion of insulin expressing cells ([2]; GFP sorting, HILOs with and without WNT treatment): not affected
- mitochondrial content / number ([2]; MitoTracker, HILOs / insulin-expressing cells): increased the mitochondrial content
